T1: synthetic integrin α1 cytoplasmic tail peptide (RPLKKKMEKRPLKKKMEK)
T1 chain: RPLKKKMEKRPLKKKMEK

T2: α2 peptide KLGFFKRKYEKMTKNPDEIDETTELSS (synthetic integrin α2 cytoplasmic tail peptide)
T2 chain: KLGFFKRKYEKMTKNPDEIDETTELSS


Assays:
[1] = target: T1, synthetic integrin α1 cytoplasmic tail …
[2] = target: T2, α2 peptide KLGFFKRKYEKMTKNPDEIDETTELSS …

Protein | phosphatase activity of immunoprecipitated SHP-2 (diFMUP substrate) [1] | phosphatase activity of immunoprecipitated SHP-2 (diFMUP substrate) [2] | catalytic activity of immunoprecipitated TCPTP (diFMUP substrate) [1] | catalytic activity of immunoprecipitated TCPTP (diFMUP substrate) [2]
SHP-2 (protein tyrosine phosphatase immunoprecipitated from HeLa lysates) (protein) TSRRWFHPNITGVEAENLLLTRGVDGSFLARPSKSNPGDFTLSVRRNGAVTHIKIQNTGDYYDLYGGEKFATLAELVQYYMEHHGQLKEKNGDVIELKYPLNCADPTSERWFHGHLSGKEAEKLLTEKGKHGSFLVRESQSHPGDFVLSVRTGDDKGESNDGKSKVTHVMIRCQELKYDVGGGERFDSLTDLVEHYKKNPMVETLGTVLQLKQPLNTTRINAAEIESRVRELSKLAETTDKVKQGFWEEFETLQQQECKLLYSRKEGQRQENKNKNRYKNILPFDHTRVVLHDGDPNEPVSDYINANIIMPEFETKCNNSKPKKSYIATQGCLQNTVNDFWRMVFQENSRVIVMTTKEVERGKSKCVKYWPDEYALKEYGVMRVRNVKESAAHDYTLRELKLSKVGQGNTERTVWQYHFRTWPDHGVPSDPGGVLDFLEEVHHKQESIMDAGPVVVHCSAGIGRTGTFIVIDILIDIIREKGVDCDIDVPKTIQMVRSQRSGMVQTEAQYRFIYMAVQHYIETLQRRIEEEQKSKRKGHEYTNIKYSLADQTSGDQSPLPPCTPTPPCAEMREDSARVYENVGLMQQQKSFR | another protein tyrosine phosphatase, SHP-2, was not activated by either peptide | another protein tyrosine phosphatase, SHP-2, was not activated by either peptide |  | 
endogenous TCPTP (T cell protein tyrosine phosphatase) of HeLa cells (protein) MPTTIEREFEELDTQRRWQPLYLEIRNESHDYPHRVAKFPENRNRNRYRDVSPYDHSRVKLQNAENDYINASLVDIEEAQRSYILTQGPLPNTCCHFWLMVWQQKTKAVVMLNRIVEKESVKCAQYWPTDDQEMLFKETGFSVKLLSEDVKSYYTVHLLQLENINSGETRTISHFHYTTWPDFGVPESPASFLNFLFKVRESGSLNPDHGPAVIHCSAGIGRSGTFSLVDTCLVLMEKGDDINIKQVLLNMRKYRMGLIQTPDQLRFSYMAIIEGAKCIKGDSSIQKRWKELSKEDLSPAFDHSPNKIMTEKYNGNRIGLEEEKLTGDRCTGLSSKMQDTMEENSESALRKRIREDRKATTAQKVQQMKQRLNENERKRKRWLYWQPILTKMGFMSVILVGAFVGWTLFFQQNAL |  |  | increased 2.95±0.48 fold | the corresponding α2 tail peptide had no effect
